Experimental data published in patent KR20110120890A.

Biological target: Her-2 (human) (UniProt P04626)
Experiment: antibody titration on FFPE SKBR-3 (positive) and MDA-MB-468 (negative) cells, non-proximal direct VeraTag release with 200 uM methylene blue, multi-parameter curve fit, single site

Work on “Ab8-Pro11 (monoclonal antibody Ab8 against the cytoplasmic domain of HER2, Lab Vision, conjugated to VeraTag reporter Pro11)” yielded a Kd of 8 µg/mL.
